Test: protease stability score; higher = more stable; yeast display proteolysis, trypsin and chymotrypsin;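 note: relative to predicted unfolded state with 0 unfolded-like and 1 meaning tenfold more protease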

Sequence	protease stability score
DEDTRDVDRFLKRLEETLLTGDWNSIRELFDPNVKVIFNGRHRHGWQNMVDILREIRVTDVRMELDDVEQYGDKITIRGRLRFKGEINGKEQDTSLTIEIILIKVNGKWSVNSIEFR	2.46
THEEEIFRRIAELIIDALTTGDEQLLRDLADPHVRQILIIDGREITVHGREEVFELLKEHIDELRIHRVNIEHMDVVGNKVTLDGRMDGYYGDKRTRLEFRIHIDIVNGKLKELTITMR	2.16
SEIKEEMDEVSELWQRALETGDEHEVLKLMDPHARIDFDGVDHVGWREVTKSLKHMRIDHIKIRHITVIGNKIDIDGEVNMTVNGQERQETVHIELIVVNGRIRHIRIHLV	0.396
DEDDRVAEHALRLLFELLRTGDWEHILEMFDPNMRLDFDGKKWHGRESFRELFTRFLEEIRIHDVKVEDFKVFDGRVEVDTRIRGKYGDKETKLETKIVALKINGRWVLESSHYN	0.898
SEEEEHVWEWAKLVIDLWQTGNEEIFKELVDPNARSEFDGVTIHGMHNDLKRIIEELREIRVRIEIHSVRVIDGVLDVDVKLRLHIGDKQREIKIRLHIVVIDGKLKSVHIDKH	1.9
SEEDRDMEHVINVLRHLMVTGDEEELTKMADPTAYSDVNGVELHGREAFSRIVKLMGVKHVEIRDFTVQGDKVDVDGETRFENHHRFSIIHLRKINGRWYIERMRLE	0.771
DEDSELAQIYNDLWRHTMETGDEHLSRRLLDPEVRLIINGREFIGWSLAIEVEHRLFKRFDHVHIDLEHITIQGDKIHTNSTLHIHFNGVTFEHRIHISIKKVNGRWINHTQRIQ	0.801
DDSEEHAEEVVRELSESLRTGDEKSVDRLLDPNVKFIINGVEYVGRELFLELFKKTLEEIRIESIEVTHIDIQGEKVRLETKEHAIINGKRFQFKTEVIMRKVNGRWEIQELRFE	1.98
DELERRSRDLVELFITALKTGDEDLFSRLIDPNALTWVGDKEQVGWHTDVKMFEDLGLTNFDFHLRSKEIRIIDGKLHTIINGSININGKETDTEIRITISKINGRWQLSSVFVRLH	0.786
TEVEKKAREINKELSSALLTGDEHIMRRLADPHVRIFFNGQHLVGMEEMMKVLLHLRIKWKDIKIEDVKIQGDFMHIDTIEHGILEVGDKRIEFHREVEIYITKINGRWMIEELTYR	1.34
DEDTESATKALQLFIHLFITGDEEQLLRLLDPNARNDIGDYHRHGREFLEFFVERVKNVTFHLHDMRLELIGDKIHLIIHGDEWVNGVRLRTELVILMEKVNGRWVIRSVRVIFR	1.75
HEHEEELHRVFKIFLELWTTGDEESMERLLDPNARWVELQGDKELTLIGRENARNRFKEIFDLAGFKYMHLDHEDIQGEKTRFEMTVEYDGRRTRMLLKIVVINGRVKVVKLEER	1.32
KEDEELSSRFMLLMWHLMVTGNWKILEELADPNVRFIDEHHTLHGREEFVRTFKDWFDEIKNMKIHVRDSTVQGEKSNIHGELNFNGKRVDYTFIILFFNGRLHQIELRYH	-0.069
DEDREIAERFLRRWSHDTLTGDEDSLRDMVDPNVRLEYGDFTFHGREEWLKFFREIRVEDSHVHHMHVFNGQARIKLDFRVRFNGKELRTKVTLSVDKVDGRWIIRSIHFE	1.64
DERSHVLEEVLKKTSRANETGNEEIIEENLDPNTRFDWNGVIIHGREQWLELVKHMRISIHHFDTRDIREFNGRADVRGDMDSVIEVDGRRLRLDTHVIYHATKVDGRWVITEIRIH	0.41
SEDTEMVRIVLEHIEHVWRTGDEHTLRELMDPHVRMDINGREHHGREHVSEIFEQEMRELGADHFRIDHKHVRIINGRIILYLRVKTHIGEKRLDIEIIIILSKVDGRWFIKEISIRHI	1.11
SEEERQSREFFKKWIHYMLTGDEHQIHTLADPNVRVVINGKEHHGRERLYELVLEFHHRLQNATSRVHTQDSVVIDGRLELHMELRVHQGDKEDTFQIRQLVVKIDGVWHSKSFEVE	1.61
DKEEEMVRHTATRFLHLLLTGDEEIITHLADPNMRIEVGDKESHGREHFADVIKEFSDHMRIKEWHIEVNEVVNGRILFDIHVDGIIGDKEDRIRFHLDIVVVNGKIKHVRIKIK	1.15
DKDEKETKDAIHILLHVARTGDERLLNTLFDPDVKLEVGDKSHHGRETITKVWKDWFHEWRIRDVTYHHVESQGDKIHVDLRIDGIFDGQRTHIESHNVLLKVNGQWLLRREVVH	0.512
DDEEEFIRKLFEDFYRAFLTGDWHELFELMDPNTRTEINGVHFHGRHIISEYLVTHIERVDHVSITLTRLDKIGDYLIIDSHLRQDVNGKKIHVRLHMHAHKIDGRWKIHRFEFE	1.34

Reference: the NTF2 design screens of Basanta et al. (2020)
